# Measured values taken from patent publication US7741110.
# What was measured:
# [1] = system: B3 three-finger zinc finger protein (Sp1C framework, designed) (synthetic); test: EMSA; settings: Zn buffer (90 uM ZnCl2, 90 mM KCl, 1 mM MgCl2), 3 h room temperature
# VP16-C7-ER (synthetic) = VP16-C7-ER (synthetic) (UniProt P08046); test: cell_activity; settings: 4-OHT-induced, HeLa; no response to RU486
# VP16-C7-PR (synthetic) = VP16-C7-PR (synthetic) (UniProt P08046); test: cell_activity; settings: RU486-induced, HeLa; no response to 4-OHT
# [2] = target: VP64-C7-PR (Zif268 variant C7 + hPR LBD aa645-914) (synthetic) (UniProt P08046); test: cell_activity; settings: HeLa luciferase, RU486-induced
# [3] = target: VP64-C7-ER (Zif268 variant C7 + mER LBD G525R) (synthetic) (UniProt P08046); test: cell_activity; settings: HeLa luciferase, 4-OHT-induced
# [4] = system: E2C-RE-VP64 (hRXRa + Drosophila EcR LBDs) (synthetic); test: cell_activity; settings: Ponasterone A-induced; significant basal activity
sequence,measurement,setting,value
GGAGGGGAC [B3 target site oligonucleotide],Kd,[1],15 nM
GCGTGGGCG (double strand) [10xC7-TATA-luc],activity,VP16-C7-ER (synthetic),43 fold
same,activity,VP16-C7-PR (synthetic),26 fold
"GAGGGTACCGCGTGGGCGAAAAAGCGTGGGCGAGTCGACTCTAGAGGGTATATAATGG (double strand) [C7 direct repeat, 3 bp spacer, TATA reporter]",activity,[2],3.9 fold
same,activity,[3],9.5 fold
GGGGCCGGAGCCGCAGTG (double strand) [E2C-TATA-luc single E2C site],activity,[4],3 fold
